Test results published in article PMC9772228, “Structure of a RecT/Redβ family recombinase in complex with a duplex intermediate of DNA annealing”.

Columns and labels:
Experiment in all cases: EMSA; EMSA: PBS pH 7.4 (or KH2PO4/10 mM MgCl2 pH 6.0), 3.6 or 5 uM protein, 25 uM nt DNA, 37 C 15 min per strand, 0.8% agarose 1x TBE; cryo-EM: 20 mM KH2PO4 (Results: 10 mM), 10 mM MgCl2 pH 6.0, 37 C; native MS: 100 mM ammonium acetate pH 7, 37 C
Details in all cases: protein: recombinant, tags: N-terminal 6His vector tag (20 aa) retained, chain copies: 10
LiRecT Y100E = target: T1, LiRecT Y100E (Listeria innocua CLIP 11262, UniProt Q92FL9 1-271, Y100E)
T1 sequence: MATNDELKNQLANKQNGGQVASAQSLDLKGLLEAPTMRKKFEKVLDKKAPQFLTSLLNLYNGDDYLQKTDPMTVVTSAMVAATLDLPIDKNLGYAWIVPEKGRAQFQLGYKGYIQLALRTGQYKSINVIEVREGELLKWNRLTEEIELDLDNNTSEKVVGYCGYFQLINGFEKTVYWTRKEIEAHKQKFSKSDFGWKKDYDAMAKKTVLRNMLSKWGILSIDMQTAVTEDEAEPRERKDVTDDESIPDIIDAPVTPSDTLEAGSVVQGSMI

LiRecT Q107A = target: T2, LiRecT Q107A (Listeria innocua CLIP 11262, UniProt Q92FL9 1-271, Q107A)
T2 sequence: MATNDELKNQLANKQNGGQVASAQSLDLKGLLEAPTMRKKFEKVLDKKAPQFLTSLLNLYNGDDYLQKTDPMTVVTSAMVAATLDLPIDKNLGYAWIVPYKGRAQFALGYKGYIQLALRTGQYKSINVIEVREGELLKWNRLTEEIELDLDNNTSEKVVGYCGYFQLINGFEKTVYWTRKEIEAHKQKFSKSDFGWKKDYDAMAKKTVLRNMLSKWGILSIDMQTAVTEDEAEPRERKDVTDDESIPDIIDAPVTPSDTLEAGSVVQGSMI

LiRecT V98A/Y100A/Q107A = target: T3, LiRecT V98A/Y100A/Q107A (Listeria innocua CLIP 11262, UniProt Q92FL9 1-271, V98A;Y100A;Q107A)
T3 sequence: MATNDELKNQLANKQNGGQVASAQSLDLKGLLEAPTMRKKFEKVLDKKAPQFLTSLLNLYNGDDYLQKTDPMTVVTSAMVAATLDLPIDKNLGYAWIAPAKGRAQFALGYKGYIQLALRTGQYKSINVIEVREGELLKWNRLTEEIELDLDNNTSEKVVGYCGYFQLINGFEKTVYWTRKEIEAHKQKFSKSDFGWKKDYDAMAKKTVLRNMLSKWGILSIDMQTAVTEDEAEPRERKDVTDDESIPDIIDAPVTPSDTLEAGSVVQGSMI

LiRecT V98W = target: T4, LiRecT V98W (Listeria innocua CLIP 11262, UniProt Q92FL9 1-271, V98W)
T4 sequence: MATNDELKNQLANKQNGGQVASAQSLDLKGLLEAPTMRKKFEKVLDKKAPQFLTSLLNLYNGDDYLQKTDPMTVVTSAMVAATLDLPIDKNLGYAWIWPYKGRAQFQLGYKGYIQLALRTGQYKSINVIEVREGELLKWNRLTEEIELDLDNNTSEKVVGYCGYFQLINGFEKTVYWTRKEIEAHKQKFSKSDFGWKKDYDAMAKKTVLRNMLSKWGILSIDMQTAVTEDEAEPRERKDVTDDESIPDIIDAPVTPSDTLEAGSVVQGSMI

LiRecT K180A = target: T5, LiRecT K180A (Listeria innocua CLIP 11262, UniProt Q92FL9 1-271, K180A)
T5 sequence: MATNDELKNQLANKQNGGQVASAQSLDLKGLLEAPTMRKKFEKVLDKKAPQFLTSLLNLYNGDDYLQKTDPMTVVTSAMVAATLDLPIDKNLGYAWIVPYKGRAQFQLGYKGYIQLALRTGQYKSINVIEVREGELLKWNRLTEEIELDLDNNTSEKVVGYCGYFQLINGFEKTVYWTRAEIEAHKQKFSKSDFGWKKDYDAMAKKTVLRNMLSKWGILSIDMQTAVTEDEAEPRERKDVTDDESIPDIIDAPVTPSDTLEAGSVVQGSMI

[1] = label: 5'-Cy3;5'-Cy5, 49 bp, 1 nt 5' overhang at each end

Measured: binding result

GCGGATGGCTTAGAGCAGAATCGCCCTGCATAGCTCGATTTTTGCGGATG (ssDNA) [Cy3-50mer]
binds: LiRecT Y100E; label: 5'-Cy3, single strand | LiRecT Q107A; label: 5'-Cy3, single strand | LiRecT V98A/Y100A/Q107A; label: 5'-Cy3, single strand | LiRecT V98W; label: 5'-Cy3, single strand | LiRecT K180A; label: 5'-Cy3, single strand

CCATCCGCAAAAATCGAGCTATGCAGGGCGATTCTGCTCTAAGCCATCCG (ssDNA) [Cy5-50mer]
binds: LiRecT Y100E; label: 5'-Cy5, single strand | LiRecT Q107A; label: 5'-Cy5, single strand | LiRecT V98A/Y100A/Q107A; label: 5'-Cy5, single strand | LiRecT V98W; label: 5'-Cy5, single strand | LiRecT K180A; label: 5'-Cy5, single strand

B1: 50-mer duplex intermediate (sequential addition) (dsDNA)
DNA 1: GCGGATGGCTTAGAGCAGAATCGCCCTGCATAGCTCGATTTTTGCGGATG
DNA 2: CCATCCGCAAAAATCGAGCTATGCAGGGCGATTCTGCTCTAAGCCATCCG
binds: LiRecT Y100E; [1] | LiRecT Q107A; [1] | LiRecT V98A/Y100A/Q107A; [1] | LiRecT V98W; [1] | LiRecT K180A; [1]
